# Results taken from patent US20250011363A1, “OPTIMIZED SHORTENED PEPTIDE THAT BINDS TO ACETYLCHOLINE RECEPTOR, AND USE THEREOF” (SKINMED CO., LTD., priority 2021, published 2025).
# Target: acetylcholine receptor
# Test: SPR, AchR immobilized on CM5 chip, peptide 10 uM
row,Binder,Binding affinity (RU)
1,RRDDFR [6mer-1-778],28 RU
2,RKAKMK [6mer-1-756],33 RU
3,RKYHHR [6mer-1-738],25 RU
4,RKIPKK [6mer-1-788],22 RU
5,KKTMDR [6mer-1-747],24 RU
6,KKTPNR [6mer-1-793],31 RU
7,KRKCWR [6mer-1-780],24 RU
8,RRFHWR [6mer-1-742],14 RU
9,KRTPDK [6mer-1-767],18 RU
10,KKYPWR [6mer-1-775],12 RU
11,KRNCAK [6mer-1-772],12 RU
12,KKTCER [6mer-1-785],19 RU
13,RKFEWK [6mer-1-768],32 RU
14,KRMMVR [6mer-1-760],21 RU
15,KKYHHR [6mer-1-758],33 RU
16,RRHAFK [6mer-1-796],28 RU
17,RKDKER [6mer-1-735],19 RU
18,RKPDDK [6mer-1-791],13 RU
19,KRWQTK [6mer-1-400],123 RU
20,RRTHER [6mer-1-734],21 RU
21,RKDNEK [6mer-1-757],26 RU

row,Binder,Binding affinity (RU)
1,KRPTEK [6mer-1-752],16 RU
2,KKTMVR [6mer-1-743],14 RU
3,RRAWNK [6mer-1-797],22 RU
4,KRTEIR [6mer-1-773],29 RU
5,RKDNKR [6mer-1-740],26 RU
6,RRDCAK [6mer-1-763],12 RU
7,RKCTIR [6mer-1-766],15 RU
8,RKKKMK [6mer-1-754],24 RU
9,KKTKAR [6mer-1-762],13 RU
10,RKMPVK [6mer-1-769],14 RU
11,KRIKEK [6mer-1-786],26 RU
12,RRHNHR [6mer-1-777],16 RU
13,RRHWDK [6mer-1-781],16 RU
14,KKDTHK [6mer-1-753],12 RU
15,RRPDAR [6mer-1-779],30 RU
16,RRKNAR [6mer-1-737],27 RU
17,KKFTPK [6mer-1-784],33 RU
18,RRANMR [6mer-1-755],25 RU
19,RKHNGR [6mer-1-748],24 RU
20,RRDCFR [6mer-1-798],18 RU

# Results, then the binder that gave them:
row,Binding affinity (RU),Binder
1,13 RU,KKTSIK [6mer-1-776]
2,16 RU,KKESIK [6mer-1-787]
3,11 RU,KKTMEK [6mer-1-745]
4,33 RU,KRENIK [6mer-1-750]
5,24 RU,RKEAGR [6mer-1-741]
6,12 RU,KKCHMR [6mer-1-795]
7,24 RU,RKMSVK [6mer-1-746]
8,12 RU,KKPNPK [6mer-1-790]
9,23 RU,RKMTWR [6mer-1-759]
10,33 RU,RKETFR [6mer-1-761]
11,32 RU,RKCCEK [6mer-1-739]
12,15 RU,KKATDK [6mer-1-736]
13,11 RU,RKYEPK [6mer-1-794]
14,24 RU,RRNPFK [6mer-1-764]
15,30 RU,KRKDKK [6mer-1-792]
16,25 RU,KRASPK [6mer-1-765]
17,21 RU,KKKMFK [6mer-1-733]
18,27 RU,RRTNFK [6mer-1-751]
19,127 RU,RRLYCR [6mer-1-401]
20,31 RU,RKHEIK [6mer-1-744]
21,29 RU,KKNEFK [6mer-1-783]
22,33 RU,RKPHWR [6mer-1-749]
23,29 RU,RKTNAR [6mer-1-770]
24,19 RU,KRMMPK [6mer-1-789]
25,21 RU,KKEMER [6mer-1-774]
26,17 RU,KKMDIK [6mer-1-771]
27,30 RU,KKNAWK [6mer-1-782]

# Target: acetylcholine receptor
# Test: SPR, AchR immobilised, peptide 10 uM
row,Binder,Binding affinity (RU)
1,RKAEKR [6mer-1-602],18 RU
2,KKACMR [6mer-1-608],18 RU
3,KKHHER [6mer-1-610],27 RU
4,KRPHFK [6mer-1-603],13 RU
5,KKFTKK [6mer-1-604],24 RU
6,KKEWNK [6mer-1-601],27 RU

# Further lines, results first:
row,Binding affinity (RU),Binder
1,24 RU,RKNPVR [6mer-1-609]
2,22 RU,KKDHFR [6mer-1-607]
3,20 RU,RKNADR [6mer-1-605]
4,15 RU,RREWFR [6mer-1-606]
